Data taken from patent US20050277575A1, “Therapeutic compositions and methods for treating diseases that involve angiogenesis” (priority 2004, published 2005).
pIC50, pKd: −log10 of the molar value. “And” between values parts separate entries of the source, which are not always exact repeats. Equal values may be shown once. Read-outs that look alike come from different tables or passages of the source. Values belong to the molecule of their own block, whether it stands above or below them. Where a SMILES comes first, the peptide text is derived from it.

Legend:
[1] = target: T1, S100A4 (Homo sapiens, UniProt P26447); assay: Modulation of S100A4 dependent tPA-mediated conversion of plasminogen to plasmin by peptides and chimera; format: biochemical; settings: for pIC50: peptides titrated 0.1-100 μM, 1 μM S100A4, read-out: IC50 for inhibition of accelerating effect of S100A4 on t-PA-dependent conversion of plasminogen to plasmin
T1 construct: GST (N); made in house; host or cells: E. coli ER2507
T1 sequence (P26447 whole entry): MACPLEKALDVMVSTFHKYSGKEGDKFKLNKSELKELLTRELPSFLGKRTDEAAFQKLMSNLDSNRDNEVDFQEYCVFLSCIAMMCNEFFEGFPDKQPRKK
Protocol: (§1) The effects of peptide SEQ ID 6, peptide SEQ ID 38 and chimera SEQ ID 39 on acceleration oft-PA-mediated conversion of plasminogen to plasmin induced by S100A4 were measured. The kinetics of t-PA-mediated plasminogen activation were determined by measuring the amidolytic activity of plasmin formed during activation of plasminogen. All the experiments were done in 100 μl volume in 96-well plates in triplicates. Glu-plasminogen (Calbiochem) at the concentration of 100 nM was preincubated at 25° C. for 1 h in the presence or absence of 1 μM recombinant S100A4 in a buffer consisting of 50 mM Tris-HCl, pH 7.4, 100 mM NaCl and 5 mM CaCl2 or 5 mM EGTA. In some experiments, different concentrations of peptides or chimera were preincubated together with proteins. The reaction was initiated by addition of 5 nM t-PA (Calbiochem) and 125 μM chromogenic plasmin substrate, Chromozym PL (Roche). The reactions were monitored at 405 nm for 1.5 h in a SPECTRAmax PLUS^384 microplate spectrophotometer (Molecular Devices) under control of the SOFTmax PRO kinetic program (Molecular Devices). The initial rates of plasmin generation, during the first 10-15 min, were calculated using linear regression analysis of plots of A405 nm versus time 2. The initial rates of plasmin generation were reported in units (K) of A405 nm/min^2×10^3. […] The titration data were analyzed with the four-parameter logistic equation K=(A−D)/(1+(x/C)^B)D. If A, asymptotic minimum, =0, this equation is converted to the Michaelis-Menten equation K=D/(1+(C/[S])^B), where [S] is substrate concentration, D=Vmax, C=Km, and B is the Hill coefficient.
Peptides SEQ ID 6 and SEQ ID 38 inhibited the accelerating effect of S100A4 on t-PA-dependent conversion of plasminogen to plasmin in concentration—dependent manner.
On the other hand, chimera SEQ ID 39 additionally accelerated plasmin formation already accelerated by S100A4.

[2] = target: T1, S100A4; assay: Fluorescence polarization assay of peptide binding with S100A4; settings: for change of fluorescence polarization upon adding S100A4: same procedure and conditions as for SEQ ID NO 7
Protocol: The following working buffers have been prepared:
TBS-EGTA: 10 mM TRIS buffer containing 150 mM NaCl, 0.05% bovine serum albumine (BSA), 1 mM EGTA
TBS-Ca: 10 mM TRIS buffer containing 150 mM NaCl, 0.05% bovine serum albumine (BSA), 1 mM CaCl2
10 mM solution of peptide SEQ ID NO 7 in DMSO was diluted with in either TBS-EGTA or TBS-Ca to obtain final peptide concentration 20 nM. Samples of these peptide solutions were placed in 384 well plate (Costar No. 3710), 45 microliters per well. Fluorescence polarization of such samples was determined using Perkin Elmer Wallac EnVision 2100 Multilabel Reader equipped with excitation filter 485 nm and emission filters 535 nm for each channel.
S100A4 has been diluted by either TBS-EGTA or by TBS-Ca to obtain a series of solutions of such concentrations that after adding 5 microliters each solution to 45 microliter peptide samples the final concentration of S100A4 was one of following: 0, 10, 30, 100, 300, 1000, 3000, or 10000 nM. Each sample was prepared in triplicate. The samples were mixed carefully while adding the protein to the peptide, and then they were incubated for 1 h at room temperature. The fluorescence polarization of the samples was determined using the same conditions as for the peptide samples before adding S100A4, and the change of fluorescence polarization of the peptide SEQ ID NO 7 upon adding S100A4 was calculated individually for each sample. The results, average of triplicates, are presentsd on the FIG. 6. The apparent binding constant of peptide SEQ ID NO 7 binding to S100A4 is 236 nM.
The same procedure and conditions have been applied to test binding of peptide SEQ ID NO 9, and peptide SEQ ID NO 10, to S100A4.

[3] = tested on: Human cerebral endothelial cells (HCEC); assay: Capillary tube formation in Matrigel, S100A4 induced angiogenesis; format: cell-based; settings: primary HCEC in Matrigel
Description: Human cerebral endothelial cells (HCEC) were isolated using previously described protocols (Stanimirovic, D., P. Morley, et al. (1996). “Angiotensin II-induced fluid phase endocytosis in human cerebromicrovascular endothelial cells is regulated by the inositol-phosphate signaling pathway.” J Cell Physiol 169(3): 455-67.). Purity of HCEC cultures generated by these procedures was routinely assessed by the immunocytochemical staining for Factor VIII-related antigen and the lack of staining for smooth muscle β-actin, and is estimated to be >95%. The morphological, phenotypic, biochemical and functional characteristics of these HCEC cultures have been described in detail previously (Muruganandam, A., L. M Herx, et al. (1997). “Development of immortalized human cerebromicrovascular endothelial cell line as an in vitro model of the human blood-brain barrier.” Faseb J 11(13): 1187-97).
HCEC were seeded (8×10^4 cells) on a semi-solid basement membrane matrix, Matrigel™ (Collaborative Biomedical Products, Bedford, Mass.)-coated 24-well plates and exposed to serum-free media containing various treatments. […] Confocal apertures for each recorded wavelength were adjusted to a full width half maximum of 20 μm. […] Eight to 32 individual optical sections were collected and the average was calculated. […]

[4] = target: T2, t-PA-mediated plasminogen activation (Homo sapiens, UniProt P00750); assay: t-PA-dependent conversion of plasminogen to plasmin, effect of S100A4 (Example 11); format: biochemical; settings: with or without 2.5 μM S100A4; for Vmax: 150 nM plasminogen, 5 nM t-PA
T2 construct: purchased Calbiochem
T2 sequence (P00750 36-562): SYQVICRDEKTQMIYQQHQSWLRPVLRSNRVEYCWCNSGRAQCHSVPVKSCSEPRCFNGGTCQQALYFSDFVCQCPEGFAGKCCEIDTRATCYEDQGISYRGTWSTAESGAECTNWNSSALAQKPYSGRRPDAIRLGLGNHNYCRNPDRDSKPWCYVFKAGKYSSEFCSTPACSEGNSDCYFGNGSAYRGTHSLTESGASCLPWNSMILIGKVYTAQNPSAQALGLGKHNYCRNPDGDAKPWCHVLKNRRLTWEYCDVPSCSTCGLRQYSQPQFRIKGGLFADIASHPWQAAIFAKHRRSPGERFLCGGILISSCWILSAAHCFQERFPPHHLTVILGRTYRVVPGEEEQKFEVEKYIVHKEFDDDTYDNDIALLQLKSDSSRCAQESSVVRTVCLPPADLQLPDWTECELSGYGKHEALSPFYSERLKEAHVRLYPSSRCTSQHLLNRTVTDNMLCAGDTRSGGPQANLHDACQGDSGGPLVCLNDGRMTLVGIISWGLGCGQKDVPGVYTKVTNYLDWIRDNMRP
Protocol: Non-active plasminogen can be converted to active protease plasmin by tissue type (t-PA) or urokinase type (u-PA) plasminogen activators. Except for its well-known fibrinolytic activity, plasmin also directly and indirectly, by activation of matrix metalloproteinases (MMPs), participates in the degradation of extracellular matrix that is important for the angiogenesis and tumor invasion. The kinetics of t-PA-mediated plasminogen activation was determined by measuring amidolytic activity of the plasmin generated during plasminogen activation. The reaction was performed with the plasmin substrate Chromozyme PL, tosyl-glycyl-prolyl-lysin-4-nitranilide-acetate (Roche) in the final concentration of 125 μM in a buffer consisting of 50 mM Tris-HCl, pH 7.4, 100 mM NaCl, 5 mM of CaCl2 or 5 mM of EGTA, and 150 nM of [Glu] plasminogen (Calbiochem). The reaction was preincubated with or without 2.5 μM S100A4 at 24 C° for 1 h in 96-well plates. The reaction was initiated by addition of t-PA (Calbiochem) up to 5 nM concentration, final volume 100 μl. Kinetic of substrate hydrolysis was measured at 2 min intervals at 405 nm in Spectramax Plus 384 spectrophotometer (Molecular Devices). Analysis of kinetics curves (Vmax, time to Vmax, and initial slope of kinetic data converted to A405 versus time^2) was performed with the help of Softmax PRO program (Molecular Devices).
Kinetics of plasminogen to plasmin conversion consists of three parts. As shown in FIG. #3 curves 1 and 2 for t-PA, during first 1500 s the reaction is second order that corresponds to conversion of plasminogen to plasmin and consequent cleavage of chromogenic substrate by plasmin. The second part of reaction is linear, for which Vmax can be calculated. It starts after total conversion of plasminogen to plasmin and corresponds to cleavage of chromogenic substrate by plasmin with constant rate. In the third part of reaction, after 2700 s, the reaction is slowing down that corresponds to depletion of chromogenic substrate and finally the reaction reaches a plateau when all substrate is cleaved. As follows from the comparison of curves 1 and 2, t-PA along converted plasminogen to plasmin equally efficiently in the presence or absence of calcium. Neither conversion of plasminogen to plasmin took place in the absence of t-PA no S110A4 induced such conversion by itself, curves 5 and 6. In the presence of S100A4 linear part of reaction starts substantially earlier, which means that total conversion of plasminogen to plasmin was accelerated. Kinetic parameters for t-PA along and for combination of t-PA with S100A4 are represented in Table 4. […] S100A4 accelerated conversion of plasminogen to plasmin in calcium independent manner, curves 3 and 4.

[5] = target: T2, t-PA-mediated plasminogen activation; assay: t-PA-mediated plasminogen conversion kinetics with and without S100A4 (Example 12); format: biochemical
Protocol: as §1
The addition of S100A4 to basal reaction (t-PA plus plasminogen) produced a significant increase in the plasminogen conversion rate. […] The stimulation of the plasminogen conversion by S100A4 was concentration-dependent with the half-maximal effect at 2.4 μM.
The kinetic parameters of t-PA-mediated plasminogen conversion were evaluated in the presence and absence of S100A4 as a function of plasminogen concentrations ranging from 3 nM to 3 μM.

effect on S100A4 acceleration at 15 μM peptide [1]: totally neglected the effect of S100A4 | pIC50 [1]: 5.46
Molecule: CSCC[C@@H](NC(=O)[C@@H](CCC(=O)O)NC(=O)[C@@H](CCCNC(=N)N)NC(=O)[C@@H](Cc1c[nH]c2ccccc12)NC(=O)CNC(=O)[C@@H](C)NC(C)=O)C(=O)N[C@H](Cc1ccc(O)cc1)C(=O)N[C@H](CO)C(=O)N[C@H](C)C(=O)N[C@H](CC(C)C)C(=O)N[C@H](CO)C(=O)N[C@@H](C)C(=O)N[C@@H](CO)C(=O)N[C@H](Cc1ccc(O)cc1)C(=O)N[C@@H](C(=O)N[C@H](CCC(=O)O)C(=O)N[C@H](CCCNC(=N)N)C(=O)N[C@H](CC(C)C)C(N)=O)C(C)C [SEQ ID 38, Ac-aGwremysalsASyverl-amide] (HELM PEPTIDE1{[ac].[dA].G.[dW].[dR].[dE].[dM].[dY].[dS].[dA].[dL].[dS].A.S.[dY].[dV].[dE].[dR].[dL].[am]}$$$$V2.0)

pKd ([2]; 20 nM peptide, S100A4 0-10000 nM, 1 h room temperature, TBS-EGTA or TBS-Ca, read-out: apparent binding constant of peptide binding to S100A4): 6.63
Molecule: CSCC[C@H](NC(=O)[C@H](Cc1ccc(O)cc1)NC(=O)[C@H](CO)NC(=O)[C@H](C)NC(=O)[C@H](CC(C)C)NC(=O)[C@H](CO)NC(=O)[C@H](C)NC(=O)CNC(=O)[C@H](Cc1ccc(O)cc1)NC(=O)[C@@H](NC(=O)[C@H](CCC(=O)O)NC(=O)[C@H](CCCNC(=N)N)NC(=O)[C@H](CC(C)C)NC(=O)CNC(=O)[C@H](C)NC(=O)c1ccc2c(c1)C(=O)OC21c2ccc(O)cc2Oc2cc(O)ccc21)C(C)C)C(=O)N[C@@H](CCC(=O)O)C(=O)N[C@@H](CCCNC(=N)N)C(=O)N[C@@H](Cc1c[nH]c2ccccc12)C(N)=O [SEQ ID NO 7, Fam-AGLREVYGASLASYMERW-amide] (HELM PEPTIDE1{[O=C1OC2(c3ccc(O)cc3Oc3cc(O)ccc32)c2ccc(C(=O)[*:2])cc21].A.G.L.R.E.V.Y.G.A.S.L.A.S.Y.M.E.R.W.[am]}$$$$V2.0)

effect on S100A4 acceleration at 15 μM peptide [1]: totally neglected the effect of S100A4 | pIC50 [1]: 5.22
Molecule: Ac-AGLREVYGASLASYMERW-NH2 [SEQ ID 6, Ac-AGLREVYGASLASYMERW-amide]
inhibition of S100A4-induced formation of capillary-like tubes [3]: completely inhibit

Molecule: Fam-aGlrevyGASlASymerw-amide [SEQ ID NO 9]
change of fluorescence polarization upon adding S100A4 [2]: No change of fluorescence polarization has been detected

Molecule: Fam-aGwremysalsASyverl-amide [SEQ ID NO 10]
change of fluorescence polarization upon adding S100A4 [2]: No change of fluorescence polarization has been detected

Increase in t-PA activity ([5]; presence of EGTA): 1
Molecule: t-PA: tissue type plasminogen activator (Calbiochem); basal reaction with plasminogen
Vmax ([4]; Ca (5 mM CaCl2)): 7.152 ± 0.130 ΔA405/t(min) * 1000 | Slope (initial rate of plasmin generation) ([4]; Ca (5 mM CaCl2)): 0.078 ΔA405/t^2(min^2) * 1000 and 0.078 ± 0.007 ΔA405/t^2(min^2) * 1000 | Time to Vmax ([4]; Ca (5 mM CaCl2)): 2200 s and 2200 ± 69 s | Vmax ([4]; EGTA (5 mM)): 8.589 ± 0.342 ΔA405/t(min) * 1000 | Slope (initial rate of plasmin generation) ([4]; EGTA (5 mM)): 0.080 ± 0.008 ΔA405/t^2(min^2) * 1000 | Time to Vmax ([4]; EGTA (5 mM)): 2102 ± 69 s | Vmax ([5]; plasminogen 3 nM to 3 μM, presence of EGTA): 1.18 | Km ([5]; plasminogen 3 nM to 3 μM, presence of EGTA, read-out: Km): 0.429 µM | Km ([5]; plasminogen 3 nM to 3 μM, read-out: Km of the t-PA-mediated plasminogen conversion): 0.429 µM
